Measurements published in the Human Domainome abundance scans (Beltran et al. 2025).
± gives the uncertainty stated by the source.

B1: Zinc finger MYM-type protein 6, residues 427 to 504; numbered along this chain, O95789 (parent)
chain: KLKCQHCNHLFATKPELLFYKGKMFLFCGKNCSDEYKKKNKVVAMCDYCKLQKIIKETVRFSGVDKPFCSEVCKFLSA

Variants of: B1
Assay: abundance fitness (aPCA) (normalised: wild type 0, dead -1); higher = more abundant; growth selection in yeast, the domain comes from the species named
Conditions: Homo sapiens

KLHCQHCNHLFATKPELLFYKGKMFLFCGKNCSDEYKKKNKVVAMCDYCKLQKIIKETVRFSGVDKPFCSEVCKFLSA [K3H] and KLKCQHCNHLFATKPELLFYKGKMFLFCGKNCSDEYKKKNKVVAMCDYCKLQEIIKETVRFSGVDKPFCSEVCKFLSA [K53E] are within error of each other in abundance fitness: -0.156 ± 0.096 for the first, -0.353 ± 0.13 for the second.

Compared with KLKCQHCKHLFATKPELLFYKGKMFLFCGKNCSDEYKKKNKVVAMCDYCKLQKIIKETVRFSGVDKPFCSEVCKFLSA [N8K], KLKCQHCNHLFANKPELLFYKGKMFLFCGKNCSDEYKKKNKVVAMCDYCKLQKIIKETVRFSGVDKPFCSEVCKFLSA [T13N] is lower in abundance fitness: 0.01 ± 0.043 for the first, -0.128 ± 0.092 for the second.

Going from KLKCQHCNHLFATMPELLFYKGKMFLFCGKNCSDEYKKKNKVVAMCDYCKLQKIIKETVRFSGVDKPFCSEVCKFLSA [K14M] to KLKCQHCNHLFATKPELLFYKGKMFLFCGKNCSDEYKKKNKVVAMCDYCKLQKIIKETVRFSGVDKPFCSEVQKFLSA [C73Q], the abundance fitness falls from -0.287 ± 0.042 to -0.944 ± 0.32.

KLKCQHCNHLFATKPELLFYKGKMFLFCGKNCSDEYKKKNKVVAMCQYCKLQKIIKETVRFSGVDKPFCSEVCKFLSA [D47Q] and KLKCQHCNHLFATKPELLFYKGKMFLFCQKNCSDEYKKKNKVVAMCDYCKLQKIIKETVRFSGVDKPFCSEVCKFLSA [G29Q] are within error of each other in abundance fitness: -0.106 ± 0.2 for the first, -0.09 ± 0.056 for the second.

KLKCQHCNHLFATKPELLFYKGKMFLFCGKNCSDEYKKKNKVKAMCDYCKLQKIIKETVRFSGVDKPFCSEVCKFLSA [V43K] and KLKCQHCNHLFATKPELLFYKGKMFLFCGKNCSDEYKKKNKVVAMCDYQKLQKIIKETVRFSGVDKPFCSEVCKFLSA [C49Q] are within error of each other in abundance fitness: 0.542 ± 0.26 for the first, 0.123 ± 0.19 for the second.

Compared with KLKCQHCNHLFATKPELLFYKGKMFLFCGKNCSDEYKKKNKVVAMCDYWKLQKIIKETVRFSGVDKPFCSEVCKFLSA [C49W], KLKCQHCNHLFATKPELLFYEGKMFLFCGKNCSDEYKKKNKVVAMCDYCKLQKIIKETVRFSGVDKPFCSEVCKFLSA [K21E] is higher in abundance fitness: -1.05 ± 0.22 for the first, 0.008 ± 0.036 for the second.

KLKCQHCNHLFATKPELLFYSGKMFLFCGKNCSDEYKKKNKVVAMCDYCKLQKIIKETVRFSGVDKPFCSEVCKFLSA [K21S] and KLKCQHCNHLFATKPELLFYKGKMFLFCGKNCSDEYKKKNKVVAMCDYCKLQKIIKETVRFSGVDKPFCSNVCKFLSA [E71N] are within error of each other in abundance fitness: 0.012 ± 0.044 for the first, 0.491 ± 0.44 for the second.

KLKCQHCNHLFATKPELLFYKGKMFLFCGKNCSDEYKKKNKVVAMCDYCKLQKIIKETVRFAGVDKPFCSEVCKFLSA [S62A] and KLKCQHCNHLFATKPELLFYKGKMFLFCGHNCSDEYKKKNKVVAMCDYCKLQKIIKETVRFSGVDKPFCSEVCKFLSA [K30H] are within error of each other in abundance fitness: 0.054 ± 0.079 for the first, -0.063 ± 0.05 for the second.

Compared with KLKCQHCNHLFATKPELLFYKGKMFLFCGWNCSDEYKKKNKVVAMCDYCKLQKIIKETVRFSGVDKPFCSEVCKFLSA [K30W], KLKCQHCNHLFATKPELLFYKGKMFLFCGKNCSDEYKQKNKVVAMCDYCKLQKIIKETVRFSGVDKPFCSEVCKFLSA [K38Q] is higher in abundance fitness: -0.146 ± 0.035 for the first, -0.053 ± 0.042 for the second.

KLKCQHCNHLFATKPELLFYKGKMFLFCGKNCSDEYKLKNKVVAMCDYCKLQKIIKETVRFSGVDKPFCSEVCKFLSA [K38L] and KLKCQHCNHLFATKPELLFYKGKMFLFCGKGCSDEYKKKNKVVAMCDYCKLQKIIKETVRFSGVDKPFCSEVCKFLSA [N31G] are within error of each other in abundance fitness: -0.088 ± 0.043 for the first, -0.026 ± 0.029 for the second.

Compared with KLKCQHCNHLFATKPELLFYKGKMFLFCGKNCSDEYKKKNKVVAMCDYCKLQKIIKETVRFSGRDKPFCSEVCKFLSA [V64R], KLKCQHCNHLFATKPELLFYKGKMFLFCGKNCSDEYKKKNKVVAMCDYCKLQKIIKETVRFSGKDKPFCSEVCKFLSA [V64K] is lower in abundance fitness: 0.058 ± 0.086 for the first, -0.298 ± 0.24 for the second.

QLKCQHCNHLFATKPELLFYKGKMFLFCGKNCSDEYKKKNKVVAMCDYCKLQKIIKETVRFSGVDKPFCSEVCKFLSA [K1Q] and KLKCQHCNHLFATKPVLLFYKGKMFLFCGKNCSDEYKKKNKVVAMCDYCKLQKIIKETVRFSGVDKPFCSEVCKFLSA [E16V] are within error of each other in abundance fitness: -0.194 ± 0.14 for the first, -0.109 ± 0.034 for the second.

KLKCQHCNHLFATKPELLFYKGKMFLFCGKNCSDEYKKKNKVVAMCDYCKLQKIIKETVRFSGVDKPFCSEVCTFLSA [K74T] and KLKCQHCNHLFATKGELLFYKGKMFLFCGKNCSDEYKKKNKVVAMCDYCKLQKIIKETVRFSGVDKPFCSEVCKFLSA [P15G] are within error of each other in abundance fitness: -0.017 ± 0.3 for the first, -0.163 ± 0.029 for the second.

KLKCQHCNHLFATKQELLFYKGKMFLFCGKNCSDEYKKKNKVVAMCDYCKLQKIIKETVRFSGVDKPFCSEVCKFLSA [P15Q] and KLKCQHCNHLFATKPELLFYKGKMFLFCGKNCSDEYKKKNKVVAMCDYCKLQKIIKETVRFSGVDKPLCSEVCKFLSA [F68L] are within error of each other in abundance fitness: -0.126 ± 0.049 for the first, -0.288 ± 0.13 for the second.

Compared with KLKCQHCNHLFATKPELLFYKGKMFLFCGKNCSDEYKKKNKVVAMCDYCKLQKIIKETVVFSGVDKPFCSEVCKFLSA [R60V], KLKCQHCNHLFATKPESLFYKGKMFLFCGKNCSDEYKKKNKVVAMCDYCKLQKIIKETVRFSGVDKPFCSEVCKFLSA [L17S] is higher in abundance fitness: -0.093 ± 0.12 for the first, 0.117 ± 0.04 for the second.

First: KLKCQHCNHLFATKPEFLFYKGKMFLFCGKNCSDEYKKKNKVVAMCDYCKLQKIIKETVRFSGVDKPFCSEVCKFLSA [L17F]
Second: KLKCQHCNHLFATKPEKLFYKGKMFLFCGKNCSDEYKKKNKVVAMCDYCKLQKIIKETVRFSGVDKPFCSEVCKFLSA [L17K]
The abundance fitness of the first is lower: -0.168 ± 0.083 for the first, 0.102 ± 0.046 for the second.

Compared with KLKCQHCNPLFATKPELLFYKGKMFLFCGKNCSDEYKKKNKVVAMCDYCKLQKIIKETVRFSGVDKPFCSEVCKFLSA [H9P], KLKCQHCNHLFATKPELLFYKGKMFLFCGKNCSDEYKKKNKVVAMCDYCKLQKIIKETVRFSGVDKSFCSEVCKFLSA [P67S] is higher in abundance fitness: -0.69 ± 0.07 for the first, 0.122 ± 0.12 for the second.

Variant KLKCQHCNHLFATKPELLFYKGWMFLFCGKNCSDEYKKKNKVVAMCDYCKLQKIIKETVRFSGVDKPFCSEVCKFLSA [K23W] has an abundance fitness of -0.419 ± 0.044.
